Data published in the supplement of paper PMC9233669.
This sample holds only a part of the variants without activity.

Tests used:
biotinyl-Ile-oxazolone = test: self-aminoacylation, catalytic enhancement (BIO) (fold over background); higher = more active; k-Seq, kA / k0A0; sequences stand for … in GGGAAUGGAUCCACAUCUACGAAUUC…UUCACUGCAGACUUGACGAAGCUG
Summary of the method: (§1)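 Mutagenized RNA pools with a 21-nt variable region (0.43 μM) were reacted with each biotinyl-aminoacyl-oxazolone at 2–1250 μM for 90 minutes at room temperature, in 50 μL HEPES/NaCl/KCl/MgCl2/CaCl2 buffer containing 5% acetonitrile at pH 6.9–7.0. RNA captured on streptavidin was quantified by triplicate qPCR and by Illumina sequencing. The fraction reacted for each sequence was fit to a pseudo-first-order model with bootstrapping, and catalytic enhancement is the median kA divided by the uncatalyzed rate, taken as the low-activity peak of a bimodal Gaussian fit.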

biotinyl-Val-oxazolone = test: self-aminoacylation, catalytic enhancement (BVO) (fold over background); higher = more active; k-Seq, kA / k0A0; sequences stand for … in GGGAAUGGAUCCACAUCUACGAAUUC…UUCACUGCAGACUUGACGAAGCUG
Summary of the method: as §1

biotinyl-Phe-oxazolone = test: self-aminoacylation, catalytic enhancement (BFO) (fold over background); higher = more active; k-Seq, kA / k0A0; sequences stand for … in GGGAAUGGAUCCACAUCUACGAAUUC…UUCACUGCAGACUUGACGAAGCUG
Summary of the method: as §1

biotinyl-Met-oxazolone = test: self-aminoacylation, catalytic enhancement (BMO) (fold over background); higher = more active; k-Seq, kA / k0A0; sequences stand for … in GGGAAUGGAUCCACAUCUACGAAUUC…UUCACUGCAGACUUGACGAAGCUG
Summary of the method: as §1

biotinyl-Trp-oxazolone = test: self-aminoacylation, catalytic enhancement (BWO) (fold over background); higher = more active; k-Seq, kA / k0A0; sequences stand for … in GGGAAUGGAUCCACAUCUACGAAUUC…UUCACUGCAGACUUGACGAAGCUG
Summary of the method: as §1

biotinyl-Leu-oxazolone = test: self-aminoacylation, catalytic enhancement (BLO) (fold over background); higher = more active; k-Seq, kA / k0A0; sequences stand for … in GGGAAUGGAUCCACAUCUACGAAUUC…UUCACUGCAGACUUGACGAAGCUG
Summary of the method: as §1

Row | Sequence | self-aminoacylation (biotinyl-Ile-oxazolone) | self-aminoacylation (biotinyl-Val-oxazolone) | self-aminoacylation (biotinyl-Phe-oxazolone) | self-aminoacylation (biotinyl-Met-oxazolone) | self-aminoacylation (biotinyl-Trp-oxazolone) | self-aminoacylation (biotinyl-Leu-oxazolone)
1 | AUUGACCUAGGUCAUUGGGUG [Fam2.2 aminoacylation ribozyme variant] | 2.82 | 2.33 | 14.7 | 2.54 | 3.59 | 2.94
2 | AUUGCCCUGAUCAUCGAGUGA [Fam2.1 aminoacylation ribozyme variant] | 3.73 | 4.01 | 26.6 | 7.51 | 8.98 | 7.17
3 | AAUACCCUGGUCAUCGAGUGA [Fam2.1 aminoacylation ribozyme variant] | 5.01 | 5.52 | 20.8 | 9.27 | 11.2 | 8.74
4 | AUUACCAUGGACAUCGAGUGA [Fam2.1 aminoacylation ribozyme variant] | 2.91 | 3.14 | 24.1 | 6.51 | 8.17 | 6.81
5 | AUUACCCUGGGCAUCGAGUGC [Fam2.1 aminoacylation ribozyme variant] | 1.1 | 0.979 | 0.527 | 1.24 | 1.31 | 0.992
6 | AUUACCCUGGUUAUCGAAUGA [Fam2.1 aminoacylation ribozyme variant] | 0.965 | 0.846 | 0.877 | 0.971 | 0.677 | 0.866
7 | CGACACUUCAAGCCAUCGGUC [Fam1B.1 aminoacylation ribozyme variant] | 1.3 | 1.59 | 0.589 | 1.17 | 1.9 | 1.17
8 | AAGGUUGCGAAUAGUCGCAAG [Fam3.1 aminoacylation ribozyme variant] | 1.64 | 1.03 | 6.53 | 1.37 | 0.982 | 1.2
9 | AAGUUUGCUAAGAGUCCCAAG [Fam3.1 aminoacylation ribozyme variant] | 0.788 | 0.672 | 1.48 | 0.787 | 1 | 0.765
10 | AGUCACCUAGAUCAUCGGGUG [Fam2.2 aminoacylation ribozyme variant] | 3.96 | 3.06 | 17.5 | 3.33 | 4.5 | 3.5
11 | AUUACCCGGGUCAACGAGUGA [Fam2.1 aminoacylation ribozyme variant] | 5.11 | 4.94 | 63.5 | 9.41 | 9.96 | 9.62
12 | CCACACUUCGAACAAUCGGUC [Fam1B.1 aminoacylation ribozyme variant] | 0.833 | 0.957 | 1.11 | 0.98 | 0.84 | 0.862
13 | AAGGUUGCUAAUAGCCGCAAG [Fam3.1 aminoacylation ribozyme variant] | 1.57 | 1.28 | 1.49 | 1.06 | 1.41 | 1.31
14 | CCACCCUUCAAGCAAUCGGUG [Fam1B.1 aminoacylation ribozyme variant] | 4.86 | 4.61 | 63.7 | 7.37 | 6.85 | 10.2
15 | CUACGUCAAACAAUCGGUAUG [Fam1A.1 aminoacylation ribozyme variant] | 1.12 | 1.12 | 1.02 | 1.39 | 1.53 | 1.11
16 | CCACACUUCAAGCAAAAGGUC [Fam1B.1 aminoacylation ribozyme variant] | 0.598 | 0.721 | 1.05 | 0.434 | 0.598 | 0.524
17 | AAGUUGGCUAUUAGUCGCAAG [Fam3.1 aminoacylation ribozyme variant] | 2 | 1.49 | 1.55 | 1.36 | 1.85 | 1.62
18 | UUUACCCUGGACAUCGAGUGA [Fam2.1 aminoacylation ribozyme variant] | 2.68 | 3.1 | 14.9 | 4.86 | 5.78 | 4.69
19 | AAGUUUGCUCAUAAUCGCAAG [Fam3.1 aminoacylation ribozyme variant] | 0.812 | 0.766 | 0.71 | 0.699 | 0.658 | 0.726
20 | AUUACACUGUUCAUCGAGUGA [Fam2.1 aminoacylation ribozyme variant] | 2.01 | 2.17 | 3.06 | 3.76 | 4.78 | 2.97
21 | AUUACCCCGGUCUUCGAGUGA [Fam2.1 aminoacylation ribozyme variant] | 3.2 | 3.4 | 29.3 | 4.71 | 6.46 | 4.72
22 | AGGUUUGCUAAUAGUCUCAAG [Fam3.1 aminoacylation ribozyme variant] | 1.17 | 1.22 | 9.24 | 1.36 | 2.89 | 1.22

Row | Sequence | self-aminoacylation (biotinyl-Ile-oxazolone) | self-aminoacylation (biotinyl-Val-oxazolone) | self-aminoacylation (biotinyl-Phe-oxazolone) | self-aminoacylation (biotinyl-Met-oxazolone) | self-aminoacylation (biotinyl-Trp-oxazolone) | self-aminoacylation (biotinyl-Leu-oxazolone)
23 | AUUCACCUAGGUCAUGGGCUG [Fam2.2 aminoacylation ribozyme variant] | 1.63 | 1.33 | 0.402 | 1.54 | 1.17 | 1.66
24 | CUACUUCAAACCAUGGGUCUG [Fam1A.1 aminoacylation ribozyme variant] | 0.966 | 0.776 | 0.455 | 0.765 | 0.564 | 0.827
25 | AUUACCCUGGUCACCGAGGGA [Fam2.1 aminoacylation ribozyme variant] | 1.67 | 2.39 | 0.887 | 2.27 | 3.76 | 1.83
26 | AUUCACCUAGAUCAUCGGGUU [Fam2.2 aminoacylation ribozyme variant] | 1.01 | 1.11 | 0.554 | 0.967 | 1.26 | 1.17
27 | AUUACCAUGAUCAUCGAGUGA [Fam2.1 aminoacylation ribozyme variant] | 5.54 | 5.53 | 56.1 | 11.1 | 14.6 | 11.6
28 | AUUACCCUGGUCAUCGUGUAA [Fam2.1 aminoacylation ribozyme variant] | 1.13 | 1.18 | 0.847 | 1.07 | 0.503 | 1.26
29 | AAUUUUGCUAAUAGUCGAAAG [Fam3.1 aminoacylation ribozyme variant] | 1.56 | 0.991 | 3.69 | 1.16 | 2.11 | 1.2
30 | CUAUUUCAAACAAGCGGUCUG [Fam1A.1 aminoacylation ribozyme variant] | 1.01 | 0.933 | 0.738 | 0.882 | 0.77 | 1.02
31 | GAGUUUGCUAAUAGUCGCCAG [Fam3.1 aminoacylation ribozyme variant] | 2.51 | 1.69 | 2.04 | 2.45 | 2.6 | 1.47
32 | UCACACUUCAAGCAAUCGGUC [Fam1B.1 aminoacylation ribozyme variant] | 0.996 | 1.2 | 49.8 | 0.998 | 22 | 1.43
33 | AUUACCCUUGUCAUCGAGGGA [Fam2.1 aminoacylation ribozyme variant] | 1.16 | 0.957 | 2.14 | 1.28 | 1.3 | 1.27
34 | AAGUUUGUUAAUGGUCGCAAG [Fam3.1 aminoacylation ribozyme variant] | 0.867 | 0.685 | 1.11 | 0.775 | 0.557 | 0.694
35 | CUACUUCCAACAAGCGGUCUG [Fam1A.1 aminoacylation ribozyme variant] | 1.21 | 0.95 | 0.744 | 1.04 | 0.678 | 0.79
36 | AUUAUCCUGGUCAUCGAGUGU [Fam2.1 aminoacylation ribozyme variant] | 4.25 | 4.73 | 15.3 | 11.1 | 9.45 | 10.2
37 | CUACUUCACACAUUCGGUCUG [Fam1A.1 aminoacylation ribozyme variant] | 1.16 | 1.1 | 1.72 | 1.13 | 1.69 | 1.36
38 | CUACUUCAAACUAUCGGUCGG [Fam1A.1 aminoacylation ribozyme variant] | 1.05 | 0.893 | 0.997 | 1.02 | 1.05 | 1.01
39 | AUUCAACUAGGCCAUCGGGUG [Fam2.2 aminoacylation ribozyme variant] | 2.61 | 2.31 | 21.5 | 3.66 | 3.9 | 3.74
40 | AAGUUUGCUAAUAGUGGAAAG [Fam3.1 aminoacylation ribozyme variant] | 1.21 | 0.944 | 0.794 | 1.2 | 0.946 | 0.876
41 | CUACUUCAAACAAUCAGUUUG [Fam1A.1 aminoacylation ribozyme variant] | 0.803 | 0.73 | 15.7 | 0.779 | 6.56 | 0.861
42 | AUGUUUGCUAAUAGUCUCAAG [Fam3.1 aminoacylation ribozyme variant] | 1.27 | 1.04 | 5.12 | 1.12 | 1.43 | 1.01
43 | AUUACCCUGGUCGUCGAGUGU [Fam2.1 aminoacylation ribozyme variant] | 1.07 | 1.2 | 2.78 | 1.39 | 1.15 | 1.08
